Paper doi:10.1101/2021.11.05.467329
“And” between values parts separate entries of the source, which are not always exact repeats. Identical values can stand only once.

What was measured:
Assay in all cases: SEC
[1] = biological target: Plasmodium falciparum glyceraldehyde 3-phosphate dehydrogenase I209T variant (recombinant) (Plasmodium falciparum) (UniProt Q8IKK7)
[2] = biological target: Plasmodium falciparum glyceraldehyde 3-phosphate dehydrogenase V238A variant (recombinant) (Plasmodium falciparum) (UniProt Q8IKK7)
[3] = biological target: Plasmodium falciparum glyceraldehyde 3-phosphate dehydrogenase, wild type (recombinant) (Plasmodium falciparum) (UniProt Q8IKK7)

Substance: Plasmodium falciparum glyceraldehyde 3-phosphate dehydrogenase I209T variant (recombinant) (from UniProt Q8IKK7 4-335) (enzyme)
- stoichiometry N [1]: 4 and 2

Substance: Plasmodium falciparum glyceraldehyde 3-phosphate dehydrogenase V238A variant (recombinant) (from UniProt Q8IKK7 4-335) (enzyme)
- stoichiometry N [2]: 4 and 2

Substance: Plasmodium falciparum glyceraldehyde 3-phosphate dehydrogenase, wild type (recombinant) (from UniProt Q8IKK7 4-335) (enzyme)
- stoichiometry N [3]: 4
